Test results published in patent publication US20070244048A1 (published 2007).
Read-outs that look alike come from different tables or passages of the source. No end group written: not given here.

Columns and labels:
mouse NMUR1-ATG [1] = target: T1, mouse NMUR1-ATG (mouse, UniProt O55040 1-428); assay: 125I-hNMU-25 displacement, cell membranes
T1 construct: whole, on cells; Cell line with engineered ATG start codon in place of the genomic CTG; also called mouse R1-ATG
T1 sequence (looked up): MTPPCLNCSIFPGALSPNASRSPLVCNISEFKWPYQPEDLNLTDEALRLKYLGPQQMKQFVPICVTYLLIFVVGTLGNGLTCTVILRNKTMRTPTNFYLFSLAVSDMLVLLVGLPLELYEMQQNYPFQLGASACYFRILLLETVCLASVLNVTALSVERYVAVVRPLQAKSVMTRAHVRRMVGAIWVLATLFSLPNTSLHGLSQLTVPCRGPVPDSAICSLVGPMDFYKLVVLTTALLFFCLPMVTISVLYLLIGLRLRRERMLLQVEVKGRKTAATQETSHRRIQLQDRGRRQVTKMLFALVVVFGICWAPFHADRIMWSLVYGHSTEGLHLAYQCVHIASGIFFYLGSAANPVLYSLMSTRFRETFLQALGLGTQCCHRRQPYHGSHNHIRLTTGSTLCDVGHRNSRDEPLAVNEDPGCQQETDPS

human NMUR1 [2] = target: T2, human NMUR1 (human, UniProt Q9HB89 1-426); assay: 125I-hNMU-25 displacement, cell membranes
T2 construct: whole, on cells; Stably expressed in cells (FLIPR); also called hNMUR1; human R1
T2 sequence (looked up): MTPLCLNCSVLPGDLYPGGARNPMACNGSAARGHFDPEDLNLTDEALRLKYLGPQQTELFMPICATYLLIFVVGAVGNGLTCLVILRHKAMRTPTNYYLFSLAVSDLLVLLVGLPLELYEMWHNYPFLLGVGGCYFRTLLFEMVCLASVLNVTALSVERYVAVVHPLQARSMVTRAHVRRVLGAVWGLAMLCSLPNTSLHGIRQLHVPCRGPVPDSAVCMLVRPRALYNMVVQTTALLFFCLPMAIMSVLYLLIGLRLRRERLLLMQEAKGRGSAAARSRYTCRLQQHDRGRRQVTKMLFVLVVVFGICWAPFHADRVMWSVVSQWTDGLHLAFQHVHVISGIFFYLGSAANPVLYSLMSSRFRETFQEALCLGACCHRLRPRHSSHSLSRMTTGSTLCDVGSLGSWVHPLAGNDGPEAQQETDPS

mouse NMUR2 [3] = target: T3, mouse NMUR2 (mouse, UniProt Q8BZ39 1-395); assay: 125I-hNMU-25 displacement, cell membranes
T3 construct: whole, on cells; also called mouse R2
T3 sequence (Q8BZ39 whole entry): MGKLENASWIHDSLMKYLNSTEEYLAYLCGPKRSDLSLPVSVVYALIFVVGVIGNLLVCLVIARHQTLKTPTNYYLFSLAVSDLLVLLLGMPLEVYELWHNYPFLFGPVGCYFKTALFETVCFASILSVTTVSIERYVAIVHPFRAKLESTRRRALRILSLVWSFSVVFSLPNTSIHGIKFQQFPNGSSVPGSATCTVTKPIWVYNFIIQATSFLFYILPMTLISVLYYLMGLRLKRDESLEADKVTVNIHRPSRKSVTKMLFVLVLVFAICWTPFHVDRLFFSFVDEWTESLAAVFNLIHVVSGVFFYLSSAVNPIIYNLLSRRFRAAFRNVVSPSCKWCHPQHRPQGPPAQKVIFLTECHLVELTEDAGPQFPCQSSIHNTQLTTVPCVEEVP

mouse NMUR1-CTG [4] = target: T4, mouse NMUR1-CTG (mouse, UniProt O55040 1-428); assay: 125I-hNMU-25 displacement, cell membranes
T4 construct: whole, on cells; Cell line with the start codon (CTG) as predicted from genomic databases; also called mouse R1-CTG
T4 sequence (looked up): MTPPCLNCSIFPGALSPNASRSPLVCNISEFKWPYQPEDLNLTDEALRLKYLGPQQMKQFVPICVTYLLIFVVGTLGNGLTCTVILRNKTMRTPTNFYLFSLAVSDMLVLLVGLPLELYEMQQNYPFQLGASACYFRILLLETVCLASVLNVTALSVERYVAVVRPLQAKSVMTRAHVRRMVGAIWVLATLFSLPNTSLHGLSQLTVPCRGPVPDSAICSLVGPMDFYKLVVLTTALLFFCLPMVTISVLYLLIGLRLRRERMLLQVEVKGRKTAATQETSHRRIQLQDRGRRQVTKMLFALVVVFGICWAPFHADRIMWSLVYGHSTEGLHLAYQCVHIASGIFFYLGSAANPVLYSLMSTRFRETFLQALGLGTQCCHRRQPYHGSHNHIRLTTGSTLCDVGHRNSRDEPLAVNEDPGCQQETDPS

human NMUR2 [5] = target: T5, human NMUR2 (human, UniProt Q9GZQ4 1-415); assay: 125I-hNMU-25 displacement, cell membranes
T5 construct: whole, on cells; Stably expressed in cells (FLIPR); also called hNMUR2; human R2
T5 sequence (Q9GZQ4 whole entry): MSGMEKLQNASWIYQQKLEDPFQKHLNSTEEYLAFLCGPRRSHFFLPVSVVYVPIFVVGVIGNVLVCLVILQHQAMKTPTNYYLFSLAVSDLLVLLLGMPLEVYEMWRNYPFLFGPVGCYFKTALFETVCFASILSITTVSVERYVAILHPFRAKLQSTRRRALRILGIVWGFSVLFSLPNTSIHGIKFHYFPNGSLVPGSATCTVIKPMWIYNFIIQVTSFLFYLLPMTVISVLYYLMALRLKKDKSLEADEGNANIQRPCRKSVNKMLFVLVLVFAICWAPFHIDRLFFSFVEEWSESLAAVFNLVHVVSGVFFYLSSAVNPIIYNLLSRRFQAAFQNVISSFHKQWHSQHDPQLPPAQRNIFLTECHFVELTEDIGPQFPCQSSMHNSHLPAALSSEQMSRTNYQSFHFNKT

rat NMUR2 [6] = target: T6, rat NMUR2 (rat, UniProt Q9ESQ4 1-395); assay: 125I-hNMU-25 displacement, cell membranes
T6 construct: whole, on cells; also called rat R2
T6 sequence (Q9ESQ4 whole entry): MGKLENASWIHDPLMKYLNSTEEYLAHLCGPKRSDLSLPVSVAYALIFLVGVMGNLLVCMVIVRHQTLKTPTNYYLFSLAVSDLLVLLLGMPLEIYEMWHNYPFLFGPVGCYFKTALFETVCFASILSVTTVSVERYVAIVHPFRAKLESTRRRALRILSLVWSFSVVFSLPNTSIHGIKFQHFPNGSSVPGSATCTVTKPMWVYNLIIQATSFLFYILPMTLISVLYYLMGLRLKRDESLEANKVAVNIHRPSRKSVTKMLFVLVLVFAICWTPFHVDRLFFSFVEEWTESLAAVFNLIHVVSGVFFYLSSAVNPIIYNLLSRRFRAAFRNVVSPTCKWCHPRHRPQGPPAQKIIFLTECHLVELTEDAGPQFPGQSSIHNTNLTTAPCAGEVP

rat NMUR1-TTG [7] = target: T7, rat NMUR1-TTG (rat, UniProt Q9JJI5 1-425); assay: 125I-hNMU-25 displacement, cell membranes
T7 construct: whole, on cells; Cell line with the start codon (TTG) as predicted from genomic databases; also called rat R1-TTG
T7 sequence (looked up): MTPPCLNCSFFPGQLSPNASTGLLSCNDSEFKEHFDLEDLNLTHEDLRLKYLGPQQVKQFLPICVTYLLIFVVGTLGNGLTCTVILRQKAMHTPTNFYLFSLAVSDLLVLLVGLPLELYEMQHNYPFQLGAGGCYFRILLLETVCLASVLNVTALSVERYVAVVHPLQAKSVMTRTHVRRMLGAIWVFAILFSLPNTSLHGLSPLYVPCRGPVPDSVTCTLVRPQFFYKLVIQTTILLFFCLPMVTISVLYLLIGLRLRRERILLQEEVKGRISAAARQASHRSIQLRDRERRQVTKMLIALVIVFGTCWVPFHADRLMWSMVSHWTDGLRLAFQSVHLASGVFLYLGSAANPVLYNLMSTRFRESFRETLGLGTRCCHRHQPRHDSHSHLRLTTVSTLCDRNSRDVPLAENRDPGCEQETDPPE

rat NMUR1-ATG [8] = target: T8, rat NMUR1-ATG (rat, UniProt Q9JJI5 1-425); assay: 125I-hNMU-25 displacement, cell membranes
T8 construct: whole, on cells; Cell line with engineered ATG start codon in place of the genomic TTG; also called rat R1-ATG
T8 sequence (looked up): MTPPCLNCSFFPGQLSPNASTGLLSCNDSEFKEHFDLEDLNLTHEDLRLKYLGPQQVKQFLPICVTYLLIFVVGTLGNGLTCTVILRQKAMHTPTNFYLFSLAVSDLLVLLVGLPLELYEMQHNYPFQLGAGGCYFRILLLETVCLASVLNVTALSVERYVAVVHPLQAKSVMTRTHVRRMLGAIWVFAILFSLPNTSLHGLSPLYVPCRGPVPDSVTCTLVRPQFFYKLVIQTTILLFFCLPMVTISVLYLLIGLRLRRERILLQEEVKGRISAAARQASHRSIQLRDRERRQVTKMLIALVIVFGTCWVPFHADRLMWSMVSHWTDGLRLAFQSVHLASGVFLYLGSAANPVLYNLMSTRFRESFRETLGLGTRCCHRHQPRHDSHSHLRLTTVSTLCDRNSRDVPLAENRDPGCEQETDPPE

human NMUR1 [9] = target: T2, human NMUR1; assay: cell-based or functional assay
human NMUR2 [10] = target: T5, human NMUR2; assay: cell-based or functional assay
mouse NMUR2 [11] = target: T3, mouse NMUR2; assay: cell-based or functional assay
rat NMUR1-ATG [12] = target: T8, rat NMUR1-ATG; assay: cell-based or functional assay
mouse NMUR1-ATG [13] = target: T1, mouse NMUR1-ATG; assay: 125I-hNMU-25 displacement, cell membranes; remark: listed apart in the source
human NMUR1 [14] = target: T2, human NMUR1; assay: 125I-hNMU-25 displacement, cell membranes; remark: listed apart in the source
mouse NMUR2 [15] = target: T3, mouse NMUR2; assay: 125I-hNMU-25 displacement, cell membranes; remark: listed apart in the source
mouse NMUR1-CTG [16] = target: T4, mouse NMUR1-CTG; assay: 125I-hNMU-25 displacement, cell membranes; remark: listed apart in the source
human NMUR2 [17] = target: T5, human NMUR2; assay: 125I-hNMU-25 displacement, cell membranes; remark: listed apart in the source
rat NMUR2 [18] = target: T6, rat NMUR2; assay: 125I-hNMU-25 displacement, cell membranes; remark: listed apart in the source
rat NMUR1-TTG [19] = target: T7, rat NMUR1-TTG; assay: 125I-hNMU-25 displacement, cell membranes; remark: listed apart in the source
rat NMUR1-ATG [20] = target: T8, rat NMUR1-ATG; assay: 125I-hNMU-25 displacement, cell membranes; remark: listed apart in the source

B1: human NMU-25 (peptide)
peptide: FRVDEEFQSPFASQSRGYFLFRPRN-NH2
notes: also called hNMU-25; native hNMU
IC50 (mouse NMUR1-ATG [1]): 400 pM | IC50 (human NMUR1 [2]): 140 pM | IC50 (mouse NMUR2 [3]): 200 pM | IC50 (mouse NMUR1-CTG [4]): 150 pM | IC50 (human NMUR2 [5]): 56 pM | IC50 (rat NMUR2 [6]): 600 pM | IC50 (rat NMUR1-TTG [7]): 200 pM | IC50 (rat NMUR1-ATG [8]): 1200 pM | % activity (human NMUR1 [9]): 100% | EC50 (human NMUR1 [9]): 5500 pM | % activity (human NMUR2 [10]): 100% | EC50 (human NMUR2 [10]): 1500 pM | IC50 (nM), functional (mouse NMUR2 [11]): 0.2 nM | IC50 (nM), functional (rat NMUR1-ATG [12]): 1.3 nM | IC50 (mouse NMUR1-ATG [13]): 400 pM | IC50 (human NMUR1 [14]): 140 pM | IC50 (mouse NMUR2 [15]): 200 pM | IC50 (mouse NMUR1-CTG [16]): 150 pM | IC50 (human NMUR2 [17]): 56 pM | IC50 (rat NMUR2 [18]): 600 pM | IC50 (rat NMUR1-TTG [19]): 200 pM | IC50 (rat NMUR1-ATG [20]): 1200 pM
